Laboratory results: PMC7567440 (2020)

Biological target: recombinant flagellin of Bacillus cereus HN001 (WR52_08290) (Bacillus cereus HN001)
Test: BLI

B1: pigeon ovomucoid (natural protein)
chain: VEVDCSRYHNTTNVEGREGLPCTKDFNPICGSDGVTYDNECLLCSYNREYGTNVSKDHDGQCREVIPVDCSKYPNVTNEEGRVALFCTENLRLVCGADGVTYDNECLLCARSLERGTRAGKKYDGECRREITTVDCSDHPQHACTLNYLPVCGSDSRTYSNRCNFCNAVVHSNGTLTLNYFGEC
modifications: terminal Galα1-4Gal residues; biotin (biotinylated POVO in the BLI assay)
  koff: 0.000376 s⁻¹
